Experiment: yeast display, Sf9 membrane polyspecificity reagent, FACS + sequencing; frameworks hold sequencing errors
Method in brief: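 Sorting gates, low and high (top ~1%), were placed on anti-HA fluorescence to track expression and on streptavidin fluorescence to track reagent binding. A clone's polyreactivity label is taken from the gate it came out of. The reagent was 10% biotinylated, detergent-solubilized Sf9 membrane, applied for 1 hour at 4 °C to galactose-induced yeast display cells.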

Row | Sequence | polyreactivity (PSR sort gate)
1 | QVHLVESGGGLVQAGGSLRLICAASGRILTFNAMGWYRQAPGKERELVAGINWSGDSTYYADSVKGRFTISRDNAKNTVYLQINSLKPEDTAFYYCTKYSYKAHFNYWGQGTQVTVSS | low polyreactivity
2 | QVQLVESGGGLVQAGGSLRLSCAASGSIFPTNTMGWYRQAPGKERELVASINSDGSTNYADSVKGSFTISRDNAKNTVYLQMNSLKPEDTAVYYWAADTQGSEYEFWGQGTQVTVSS | low polyreactivity
3 | QVQLVESGGGLVQAGGSLRLSCAASGFTFIRYAMGWYRQAPGKERELVATITRSGGSTYYADSVKGRFTISRDNAKNTVYLQMNSLKPEDTAVYYCAKRGTLGSYYYWGQGTQVTVSS | high polyreactivity
4 | QVQLVESGGGLVQAGGSLRLSCAASGSTFWANAMGWYRPAPGKERELVAAISRNGGSTYYADSVKGRFTISRDNAKNTVYLQMNSLKPEDTAVYYCAAKKYYYRRQLDYWGQGTQVTVSS | high polyreactivity
5 | QVQLVESGGGLVQAGCSLRLTCPASGSIIKLYAMGWYRQAPGKEREMVAAITSVGSTYYADSVKGRFTISRDNAKNTVYFQMKSLKPEDTAVYYCAASVYYLYFHAKYDYWGQGTLVTVSS | low polyreactivity
6 | QVQLVESGGGLVQAGGSLRLSCAASGYIFHDNAMGWYRQAPGKERELVAGITTGGSTYYADSVKGRFTISRDNAKYTVYLQMNSLKPEDTAVYYCAAKVWSRSFYKYYYWGQGTQVTVSS | high polyreactivity
7 | PVQLVESGGGLVQAGGSLRLSCPASGRILVGNAMGWYRQAPGKERELVAALTSSGDSTNYADSVKGRFTISRDNAKNTVYLQMNSLKPEDTAVYYCAAGSFGTSGFSDVIWEGDYWGQGTQVTVSS | low polyreactivity
8 | QVQLVESGGGLVQAGGSLRLSCAASGFTFLRYAMGWYRQAPGKERELVAAISTSGGRTYYADSVKGRFTISRDNAKNTVYLQMNSLKPEDTAVYYCNAAGGYRTSPSDYWGQGTQVTVSS | high polyreactivity
9 | QVQLVESGGGLVQAGGSLRLSCAASGITSCFSAMGWYRPAPGQERELVAGISSGGSTNYADSVKGRFTISRDNAKNTVYLQMTSLKPEDTAVYYCPATFYNRYETRYYYWGQGTQVTVSS | high polyreactivity
10 | QVQLVESGGGLVQAGGSLRLSCAASGRTFWYNTMGWYRQAPGKERELVAAISTGGSTNYADSVKGRFTISRDNAKNTVYLQMNSLIPEDTAVYYCAALIYYWSGRPRFDQARDYDYWGQGTQVTVSS | low polyreactivity
11 | QVQLVESGGGLVQAGGSLRLSCAASGSIFGKYAMGWYRQAPGKERELVAAITWSGGSTRYADSVKGRFTISRDNAKNTVYLQMNSLKPEDTAVYYCAAPSTESKYYYWGQGTQVTVSS | high polyreactivity
12 | QVQHEDSGGCLVQAAGSLSVSCAATGSTFDTYEMGRSRKATGKEMELVAAISSGGGTKYADSVKGRFKISRDNAKNTVYLQMNSLKPEDTAVYYCAADKAVGDSTRYYYWGQGTQVTVSS | low polyreactivity
13 | QVQLVESGGGLVQAGGSLRLSCAASGRIFIYYTMGWYRQAPGKERELVASITWSGGRTYYADSVKGRFTISRDNAKNTVYLQMNSLKPEDTAVYYCNAGYSIGLVAYGYWGQGTQVTLSS | low polyreactivity
14 | QVQLVESGGGLVQAGGSLRLSCAASGIIFPYYAMGWYRQAPGKERELVAGISSSGGITYADSVKGRFTISRDNAKNTVYLQMNSLKPEDTAVYYCAARYPARGTLYYWGQGTQVTVSS | low polyreactivity
15 | QVQLVESGGGLVQAGGSLRLSCAASGGTCSFYTMGWYRQAPGKERELVAAISRSGGRTYYADSVKGRFTISRDNAQNTVYLQMNSLKPEDTAVYYCAAERFSNIYTTMGYWGQGTQVTVSS | high polyreactivity
16 | QVQLVESGGGLVQAGGSLRLSCAASGSIFLNNAMGWYRQAPGKERELVAAITRNVGSTYYADSVKGRFTISRDNAKNTVYLQMNSLKPEDSAVYYCAADRRRRYDYWGQGTQVTVSS | low polyreactivity

Row | Sequence | polyreactivity (PSR sort gate)
17 | QVQLVESGGGLVQAGGSLRLSCAASGFIFYDYAMGWYRQAPGKERELVAVITSGGSTYYADSVKGRFTISRDNAKNTVYLQMNSLKPEDTAVYYCNADWVFTWYDYPNDKYDYWGQGTQVTVSS | low polyreactivity
18 | QVQLVESGGGLVQAGGSLRLSCAASGSTFYFNAMGWSRQAPGKERELVAAIDWSGGSTYYADSVKGRFTISRDNAKNTVYLQMNSLKPEDTAVYYCITVPNRARISTLYGYDYWGQGTQVTVSS | low polyreactivity
19 | QVQLVESGGGLVQAGGSLRLSCAASGSTFSYNAMGWYRQAPGKVRELVASINSRGGTTYYADSVKGRFTISRDNAKNTVYLQMNSLKPEDTAVYYCATDVYRLGEYDYWGQGTQVTVSS | low polyreactivity
20 | QVQLVESGGGLVQAGGSLRLSCAASGSTFPRYALGWYRQAPGKERELVAAISRSGGSTYYADSVKGRFTISRDNAKNTVYLQMNSLKPEDTAVYYCAARYERGSYKYDYWGQGTQVTVSS | high polyreactivity
21 | QVQLVESGGGLVQAGGSLRLSCAPSGSTFYVNAMGWYRQAPGKEREFVAAITWNSGSTYYADSVKGRFTISRDNAKNTVYLQMNSLKPEDTAVYYCAADGYHYVTYLVSYGYWGQGTQVTVSS | low polyreactivity
22 | QVQLVESGGGLVQAGGSLRLSCAASGRTFSFNGMGWYRQAPGKERELVAAISRRGTSTYYADSVKGRFTISRDNAKNTVYLQMNSLKPEDTAVYYCAARSTYTRREYDYWGQGTQVTVSS | high polyreactivity
23 | QVQLVESGGGLVQAGGSLRLSCAASGSIFLYYVMGWYRKAPGKERELVAAITWDGGSTYYADSVKGRFTISRDNAKNTVYLQMNSLKPEDTAVYYCNKGFKLWPRYGYDYWGQGTQVTVSS | low polyreactivity
24 | QVQLVESGGGLVQAGGSLRLSCAASGFIFGVYAMGWYRQAPGNERELVAAISGSGGTTYYADSVKGRFTISRDNAKNTVYLQMNSQKPEDTAVYYCNAAYRVRYIVNYDYWGQGTQVTVSS | low polyreactivity
25 | QVQLVESGGGLVQAGGSLRLSCAASGSTFDVYAMGWYRQAPGKERELVAAITQSGGSTYYADSVKGRFTISRDNAKNTVYLQMNSLKTEDTAVYYCAAREWRSFDYWGQGTQVTVSS | low polyreactivity
26 | QVQLVESGGGLVQAGGSLRLSCAASGITLKLYVMGWYRQAPGKERELVAAISRRGGSTYYADSVKGRFTISRDNAKNTVYLQMNSLKPEDTAVYYCAKDGTQYERQDPAYGYWGQGTQVTVSS | high polyreactivity
27 | QVQLVESGGGLVQAGGSLRLSCAASGSIFDYYAMGWYRQAPGKERELVAAIDSGDITYYADSVKGRFTISRDNAMNTVYLQMNSLKPEETAVYYCAAEGTGYSVGWQYGYWGQGTQVTVSS | low polyreactivity
28 | QVQLVESGGGLVQAGGSLRLSCAASGSTFWLYAMGWYRQAPGKEREFVATISSSTTYYADSVKGRFTISRDNAKNTVYFQMNSLKPQDTAVYYCNAADYYSDVWSSVDYEGDYWGQGTQVTVSS | low polyreactivity
29 | QVQLVESGAGLFQAGGRLRISCAPSGFIFVFNAMGWYRQAPGKERELVAAINRGDITNYADSVKGRFTISRDNAKNTVYLQMHSLSPVDTAVYFCAADGEDSLWTGYDYDYWGQGTQVTVST | low polyreactivity
30 | QVQLVESGGGLVQAGGSLRLSCAASGRIFGPYAMGWYRQAPGKERELVASISYSGGSTYYADSVKGRFTISRDNAKNTVYLQMNSLKPEDTAVYYCARRAVYSKRRYDYWGQGTQVTVSS | low polyreactivity
31 | QVQLVESGGGLVQAGGSLRLSCAASGFIFDVYAMGWYRQAPGTERELVAAITSGDGTNYADSVKGRFTISRDNAKNTVYLQMNSLKPEETAVYYCAADDGVTYRGIIFSYWGQGTQVTVSS | low polyreactivity
32 | QVQLVESGGGLVQAGGSLRLSCAASGFTFEYYAMGWYRQAPGKEREFVAAISARGDSTYYADSVKGRFTISRDNAKNTVYLQMNSLKPEDSAVYYCAKKTSPRRYYYWGQGTQVTVSS | high polyreactivity

— the nanobody polyreactivity screen of Harvey et al. (2022)
